One experiment has as its target T1, S2hlx-Ex15 F1148A.
T1 epitope scaffold: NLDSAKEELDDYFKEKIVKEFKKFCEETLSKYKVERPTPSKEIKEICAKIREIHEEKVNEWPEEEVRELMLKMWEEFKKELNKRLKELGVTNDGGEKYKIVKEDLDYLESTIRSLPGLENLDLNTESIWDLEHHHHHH
Kind of experiment: ELISA; antigen coated, mAb titrated. For orientation: An ELISA detects its analyte on a solid surface through an enzyme-linked reagent.

A further experiment deals with T2, S2hlx-Ex34 F1148A.
T2 epitope scaffold: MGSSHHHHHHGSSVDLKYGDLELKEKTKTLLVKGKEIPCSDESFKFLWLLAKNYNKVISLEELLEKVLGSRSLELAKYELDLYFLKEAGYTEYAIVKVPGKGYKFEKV
Kind of experiment: ELISA; antigen coated, mAb titrated.

A further experiment has as its target T3, S2hlx-Ex34 L1145A.
T3 epitope scaffold: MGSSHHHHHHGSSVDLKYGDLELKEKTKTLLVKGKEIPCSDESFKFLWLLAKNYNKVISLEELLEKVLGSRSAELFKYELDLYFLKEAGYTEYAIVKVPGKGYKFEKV
Kind of experiment: ELISA; antigen coated, mAb titrated.

The target in another experiment is T4, S2hlx-Ex46.
T4 epitope scaffold: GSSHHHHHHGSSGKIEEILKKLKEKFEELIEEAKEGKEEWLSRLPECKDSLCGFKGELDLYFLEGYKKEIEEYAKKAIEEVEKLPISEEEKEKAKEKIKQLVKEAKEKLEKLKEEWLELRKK
Kind of experiment: SPR, single cycle; mAb captured on Protein A, epitope scaffold as analyte.

A further experiment has as its target T5, S2hlx-Ex37.
T5 chain: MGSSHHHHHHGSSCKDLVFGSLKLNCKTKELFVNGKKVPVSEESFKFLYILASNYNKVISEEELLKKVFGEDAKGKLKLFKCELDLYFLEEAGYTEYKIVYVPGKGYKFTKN
The experiment is described as above.

Another experiment deals with T6, S2hlx-Ex54.
T6 chain: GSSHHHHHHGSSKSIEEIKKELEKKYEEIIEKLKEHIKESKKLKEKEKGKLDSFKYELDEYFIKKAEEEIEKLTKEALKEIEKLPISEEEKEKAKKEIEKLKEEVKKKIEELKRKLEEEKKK
Described as above.

The target in another experiment is T7, S2hlx-8.
T7 epitope scaffold: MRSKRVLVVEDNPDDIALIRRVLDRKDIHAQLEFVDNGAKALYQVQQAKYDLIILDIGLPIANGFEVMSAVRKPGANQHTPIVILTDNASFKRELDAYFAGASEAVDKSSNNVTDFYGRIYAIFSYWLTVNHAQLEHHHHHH
Kind of experiment: SPR, mAb captured, antigen as analyte. In general terms: In SPR one partner is held on a chip, and binding of the other changes the refractive index at the surface.

For a further experiment, the target named is S2hlx-14. Kind of experiment: SPR, mAb captured, antigen as analyte.
The target of the next experiment is T8, S2hlx-13.
T8 epitope scaffold: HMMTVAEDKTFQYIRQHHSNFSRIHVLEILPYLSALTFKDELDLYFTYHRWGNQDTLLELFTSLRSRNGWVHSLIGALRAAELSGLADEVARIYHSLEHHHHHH
Kind of experiment: SPR, mAb captured, antigen as analyte.

A further experiment addresses T9, S2hlx-1.
T9 epitope scaffold: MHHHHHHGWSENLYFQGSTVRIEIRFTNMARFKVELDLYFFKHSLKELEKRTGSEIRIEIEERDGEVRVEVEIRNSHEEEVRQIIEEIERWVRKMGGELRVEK
Kind of experiment: SPR, mAb captured, antigen as analyte.

A further experiment addresses T10, S2hlx-Ex2.
T10 construct: backbone grafting design
T10 chain: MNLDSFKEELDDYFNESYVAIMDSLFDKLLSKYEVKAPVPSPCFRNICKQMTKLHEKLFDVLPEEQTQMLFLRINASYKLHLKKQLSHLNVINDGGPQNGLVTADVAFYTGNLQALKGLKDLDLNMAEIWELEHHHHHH
Kind of experiment: ELISA, coated antigen, mAb titrated.

A further experiment addresses T11, S2hlx-Ex4.
T11 construct: backbone grafting design
T11 chain: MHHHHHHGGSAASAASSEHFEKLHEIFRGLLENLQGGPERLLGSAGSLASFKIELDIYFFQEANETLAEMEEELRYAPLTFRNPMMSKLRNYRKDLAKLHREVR
Kind of experiment: ELISA, coated antigen, mAb titrated.

The next experiment deals with T12, S2hlx-Ex3.
T12 construct: backbone grafting design
T12 chain: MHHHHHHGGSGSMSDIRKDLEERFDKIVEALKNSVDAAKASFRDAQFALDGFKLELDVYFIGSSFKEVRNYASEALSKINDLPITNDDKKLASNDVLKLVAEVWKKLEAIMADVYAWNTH
Kind of experiment: ELISA, coated antigen, mAb titrated.

B1: S2P6 mAb (antibody, V domains shown)
VH: EVQLVQSGAEVKKPGASVKVSCKASGYTFTSQYMHWVRQAPGQGLEWIGIINPSGVHTSYAQKFQGRVTLTRDTSTSTLYMELSSLRSEDTAVYYCARGSPKGAFDYWGQGTLVTVSS
VL: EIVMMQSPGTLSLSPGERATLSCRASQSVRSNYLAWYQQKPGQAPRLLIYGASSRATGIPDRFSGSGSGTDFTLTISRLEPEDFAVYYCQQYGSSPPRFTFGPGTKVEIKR
The term EC50 (read off the curve) denotes the concentration needed to bring the measured effect to its halfway point. In general, Kd refers to the constant that tells how readily two partners part at equilibrium. With B1, the “EC50 (read off the curve)” value with S2hlx-Ex15 F1148A is around 0.07 µg/mL; with S2hlx-Ex34 F1148A, around 0.09 µg/mL; with S2hlx-Ex34 L1145A, around 0.02 µg/mL; with S2hlx-Ex2, around 0.07 µg/mL; with S2hlx-Ex4 it was around 0.07 µg/mL; with S2hlx-Ex3 it was around 0.06 µg/mL. Besides, the dissociation constant Kd with S2hlx-Ex46 is 296 nM; with S2hlx-Ex37, 664 nM; with S2hlx-Ex54, 45.6 nM; with S2hlx-8 it was 63 nM; with S2hlx-14, 30 nM; with S2hlx-13, 83 nM. The Kd with S2hlx-1 is 52.8 nM.

The record behind these values is patent US20240285753A1 (DUKE UNIVERSITY, published 2024).
